Consider 20 molecules from patent publication US20170037089A1 (IMMATICS BIOTECHNOLOGIES, published 2017).

To fix the notation:
B1: KMDEASAQLL (SEQ ID No. 14) (peptide)
peptide: KMDEASAQLL
B2: ALLESRVNL (SEQ ID No. 6) (peptide)
peptide: ALLESRVNL
notes: also called PDE11-001
B3: YLLKDKGEYTL (SEQ ID No. 53) (peptide)
peptide: YLLKDKGEYTL
B4: KMDEASAQLLA (SEQ ID No. 15) (peptide)
peptide: KMDEASAQLLA
B5: SLLSHQVLL (SEQ ID No. 20) (peptide)
peptide: SLLSHQVLL
B6: KIFSRLIYI (SEQ ID No. 5) (peptide)
peptide: KIFSRLIYI
notes: also called TRPM8-003
B7: SLYDSIAFI (SEQ ID No. 22) (peptide)
peptide: SLYDSIAFI
B8: TLWRGPVVV (SEQ ID No. 10) (peptide)
peptide: TLWRGPVVV
B9: SLFHPEDTGQV (SEQ ID No. 49) (peptide)
peptide: SLFHPEDTGQV
notes: also called KLK3-004
B10: VTAQIGIVAV (SEQ ID No. 1) (peptide)
peptide: VTAQIGIVAV
notes: also called OR51E2-001
B11: TLLQVVGVVSV (SEQ ID No. 7) (peptide)
peptide: TLLQVVGVVSV
B12: YLNDSLRHV (SEQ ID No. 21) (peptide)
peptide: YLNDSLRHV
B13: AMAPNHAVV (SEQ ID No. 13) (peptide)
peptide: AMAPNHAVV
B14: GMLNEAEGKAIKL (SEQ ID No. 9) (peptide)
peptide: GMLNEAEGKAIKL
B15: YLEEECPAT (SEQ ID No. 11) (peptide)
peptide: YLEEECPAT
B16: KMDEASAQL (SEQ ID No. 16) (peptide)
peptide: KMDEASAQL
B17: ALGDLVQSV (SEQ ID No. 52) (peptide)
peptide: ALGDLVQSV
B18: HLLEDIAHV (SEQ ID No. 3) (peptide)
peptide: HLLEDIAHV
notes: also called NEFH-001
B19: SMLGEEIQL (SEQ ID No. 2) (peptide)
peptide: SMLGEEIQL
notes: also called GREB-001
B20: ALLTFVWKL (SEQ ID No. 4) (peptide)
peptide: ALLTFVWKL
notes: also called TRPM8-002

The target in this assay is T1, HLA-A*02 (peptide-receptive MHC class I monomer after UV-ligand exchange) (human).
T1 construct: also called HLA-A*02:01; HLA-A*0201
Kind of assay: UV-ligand exchange, b2m ELISA; peptide exchange yield grade (>=10% +; >=20% ++; >=50 +++; >=75% ++++). The text has this:
Candidate peptides for T cell based therapies according to the present invention were further tested for their MHC binding capacity (affinity). The individual peptide-MHC complexes were produced by UV-ligand exchange, where a UV-sensitive peptide is cleaved upon UV-irradiation, and exchanged with the peptide of interest as analyzed. Only peptide candidates that can effectively bind and stabilize the peptide-receptive MHC molecules prevent dissociation of the MHC complexes. To determine the yield of the exchange reaction, an ELISA was performed based on the detection of the light chain (β2m) of stabilized MHC complexes. The assay was performed as generally described in Rodenko et al. (Rodenko et al., 2006).
96 well MAXISorp plates (NUNC) were coated over night with 2 ug/ml streptavidin in PBS at room temperature, washed 4× and blocked for 1 h at 37° C. in 2% BSA containing blocking buffer. Refolded HLA-A*02:01/MLA-001 monomers served as standards, covering the range of 15-500 ng/ml. Peptide-MHC monomers of the UV-exchange reaction were diluted 100 fold in blocking buffer. Samples were incubated for 1 h at 37° C., washed four times, incubated with 2 ug/ml HRP conjugated anti-32m for 1 h at 37° C., washed again and detected with TMB solution that is stopped with […]. Absorption was measured at 450 nm. Candidate peptides that show a high exchange yield (preferably higher than 50%, most preferred higher than 75%) are generally preferred for a generation and production of antibodies or fragments thereof, and/or T cell receptors or fragments thereof, as they show sufficient avidity to the MHC molecules and prevent dissociation of the MHC complexes.
In turn, B1 had a peptide exchange yield of 20 to 50%.
The result for B2 reads not below 75%; that for B3, 50 to 75%; that for B4, 50 to 75%.
To B5 belongs 50 to 75%; to B6, 50 to 75%.
To B7 belongs not below 75%; to B8, 50 to 75%; to B9, 50 to 75%.
B10 showed a peptide exchange yield not below 75%.
The result for B11 reads 20 to 50%; that for B12, 20 to 50%.
In turn, B13 displayed a peptide exchange yield of 50 to 75%.
For B14, the peptide exchange yield was in the range of 50 to 75%.
In the case of B15, the peptide exchange yield was in the range of 20 to 50%.
To B16 belongs 50 to 75%.
The result for B17 reads 50 to 75%; that for B18, not below 75%; that for B19, not below 75%.
Turning to B20, the peptide exchange yield is not below 75%.
